Numbering of substitutions follows the chain as printed. One block for each binder: values may come before it.
Tests used:
[1] = target: T1, mouse TIFA(1−150) (mouse, UniProt Q793I8 1-150); assay: SEC
T1 sequence (looked up): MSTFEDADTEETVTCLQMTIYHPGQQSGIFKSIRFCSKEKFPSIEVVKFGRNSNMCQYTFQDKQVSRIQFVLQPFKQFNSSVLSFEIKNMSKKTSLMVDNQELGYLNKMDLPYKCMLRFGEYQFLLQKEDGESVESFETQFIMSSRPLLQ

[2] = target: T2, mouse TIFA(1−150/C36S) (mouse, UniProt Q793I8 1-150, C36S); assay: crystal structure
T2 sequence (looked up): T1 sequence (looked up) with C36S

[3] = target: the molecule itself; assay: SEC

- binding result [1]: binds
B1: mouse TIFAB, full length, coexpressed with TIFA (natural protein, UniProt Q8JZM6 1-147, looked up)
chain: MERPLTVLQVSLYHPTQGPVAFAHVPQQLQHDASRLLVGRGQNTHLQLQLPQLSRYHLSLEPYLEKGSSLLAFCLKVLTRKSCVWVNGLPLRYLEQVPLGTINRISFSGIQMLVRKEGGASLETFVCYFHLSPSPLIYRPKAQETDE

- binding result [2]: binds
B2: mouse TIFAB(1−139) (domain or fragment, UniProt Q8JZM6 1-139, looked up)
chain: MERPLTVLQVSLYHPTQGPVAFAHVPQQLQHDASRLLVGRGQNTHLQLQLPQLSRYHLSLEPYLEKGSSLLAFCLKVLTRKSCVWVNGLPLRYLEQVPLGTINRISFSGIQMLVRKEGGASLETFVCYFHLSPSPLIYR

B3: mouse TIFA dimer (natural protein, UniProt Q793I8 1-184, looked up)
chain: MSTFEDADTEETVTCLQMTIYHPGQQSGIFKSIRFCSKEKFPSIEVVKFGRNSNMCQYTFQDKQVSRIQFVLQPFKQFNSSVLSFEIKNMSKKTSLMVDNQELGYLNKMDLPYKCMLRFGEYQFLLQKEDGESVESFETQFIMSSRPLLQENNWPTQNPIPEDGMYSSYFTHRSSPSEMDENEL
- stoichiometry N [3]: 2
